In one assay the target is T1, Ple E12–24 (M546–E1128) (rat, UniProt P30427 546-1128).
T1 sequence (looked up): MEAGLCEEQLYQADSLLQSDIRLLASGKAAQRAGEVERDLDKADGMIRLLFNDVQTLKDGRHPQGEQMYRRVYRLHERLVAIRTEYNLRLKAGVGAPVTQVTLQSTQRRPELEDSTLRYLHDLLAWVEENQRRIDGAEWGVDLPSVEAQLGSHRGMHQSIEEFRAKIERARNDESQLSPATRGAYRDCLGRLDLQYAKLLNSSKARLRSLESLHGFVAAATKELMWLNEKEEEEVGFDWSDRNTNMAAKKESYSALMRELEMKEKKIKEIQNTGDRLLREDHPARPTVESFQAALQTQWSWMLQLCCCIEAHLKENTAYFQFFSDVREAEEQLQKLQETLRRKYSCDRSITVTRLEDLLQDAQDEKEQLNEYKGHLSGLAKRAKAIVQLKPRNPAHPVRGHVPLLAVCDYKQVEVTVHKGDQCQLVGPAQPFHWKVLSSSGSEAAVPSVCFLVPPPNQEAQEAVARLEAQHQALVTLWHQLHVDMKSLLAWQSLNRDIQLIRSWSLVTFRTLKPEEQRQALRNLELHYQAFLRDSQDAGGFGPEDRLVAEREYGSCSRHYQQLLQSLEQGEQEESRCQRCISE
Description: far-Western, overlay or dot blot.

In assay [1] the target is T2, Dys WW-ZZ, WW-ZZ domain (A3041–M3356) of human dystrophin (human, UniProt P11532 3041-3356).
T2 sequence (looked up): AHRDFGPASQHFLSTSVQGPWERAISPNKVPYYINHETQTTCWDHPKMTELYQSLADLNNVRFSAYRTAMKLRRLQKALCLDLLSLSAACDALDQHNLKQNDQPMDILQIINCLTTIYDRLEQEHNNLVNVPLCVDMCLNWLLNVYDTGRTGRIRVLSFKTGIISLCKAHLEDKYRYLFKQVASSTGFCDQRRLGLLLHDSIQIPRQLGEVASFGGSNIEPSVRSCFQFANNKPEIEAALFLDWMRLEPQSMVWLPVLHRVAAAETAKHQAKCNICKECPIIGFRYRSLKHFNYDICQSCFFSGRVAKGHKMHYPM
The assay can be described thus: far-Western, overlay or dot blot.

For the next assay, the target named is T3, Ple R4–C (L3850–A4687) (rat, UniProt P30427 3850-4687).
T3 sequence (looked up): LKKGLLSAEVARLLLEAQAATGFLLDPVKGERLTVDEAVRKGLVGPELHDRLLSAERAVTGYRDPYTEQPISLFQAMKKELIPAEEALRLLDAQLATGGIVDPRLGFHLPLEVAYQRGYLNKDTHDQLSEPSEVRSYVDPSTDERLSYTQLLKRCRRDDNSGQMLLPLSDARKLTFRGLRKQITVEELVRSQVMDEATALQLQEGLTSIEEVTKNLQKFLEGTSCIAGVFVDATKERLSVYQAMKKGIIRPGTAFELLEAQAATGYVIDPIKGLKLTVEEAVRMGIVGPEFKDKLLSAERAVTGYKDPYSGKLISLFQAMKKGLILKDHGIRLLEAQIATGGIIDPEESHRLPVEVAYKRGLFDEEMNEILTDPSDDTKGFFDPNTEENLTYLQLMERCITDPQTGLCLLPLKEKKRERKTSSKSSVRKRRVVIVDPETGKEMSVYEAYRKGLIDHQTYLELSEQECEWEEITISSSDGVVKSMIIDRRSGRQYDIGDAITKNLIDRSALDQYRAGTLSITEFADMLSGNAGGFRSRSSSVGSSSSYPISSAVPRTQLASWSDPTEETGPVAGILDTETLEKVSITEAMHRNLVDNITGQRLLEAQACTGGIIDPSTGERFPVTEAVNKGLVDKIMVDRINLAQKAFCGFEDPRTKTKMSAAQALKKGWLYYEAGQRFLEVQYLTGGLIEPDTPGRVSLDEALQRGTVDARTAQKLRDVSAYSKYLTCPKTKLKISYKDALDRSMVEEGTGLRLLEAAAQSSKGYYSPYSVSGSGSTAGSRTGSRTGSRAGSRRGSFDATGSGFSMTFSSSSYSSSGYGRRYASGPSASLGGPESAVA
Description: far-Western, overlay or dot blot.

The target of the next assay is T4, Utr WW-ZZ (A2798–M3113) (human, UniProt P46939 2798-3113).
T4 sequence (looked up): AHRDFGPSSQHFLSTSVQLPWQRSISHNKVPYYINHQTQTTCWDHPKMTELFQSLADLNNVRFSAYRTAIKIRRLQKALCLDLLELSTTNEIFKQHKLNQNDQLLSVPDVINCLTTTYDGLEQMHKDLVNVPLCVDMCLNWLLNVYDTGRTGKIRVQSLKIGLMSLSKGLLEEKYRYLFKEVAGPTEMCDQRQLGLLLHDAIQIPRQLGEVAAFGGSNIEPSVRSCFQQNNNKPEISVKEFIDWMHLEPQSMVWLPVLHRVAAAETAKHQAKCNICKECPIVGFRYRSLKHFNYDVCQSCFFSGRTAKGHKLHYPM
The assay can be described thus: microtiter plate-binding assay.

B1: βDGcytΔDBS (L765–D857), β-dystroglycan cytoplasmic fragment lacking the dystrophin-binding site (domain or fragment, human, UniProt Q14118 765-857, looked up)
chain: LIAGIIAMICYRKKRKGKLTLEDQATFIKKGVPIIFADELDDSKPPPSSSMPLILQEEKAPLPPPEYPNQSVPETTPLNQDTMGEYTPLRDED
B1: the binding result in the assay with Ple E12–24 (M546–E1128) is “binds”.

B2: βDGcyt (L765–P895), cytoplasmic domain of human β-dystroglycan (domain or fragment, UniProt Q14118 765-895, looked up)
chain: LIAGIIAMICYRKKRKGKLTLEDQATFIKKGVPIIFADELDDSKPPPSSSMPLILQEEKAPLPPPEYPNQSVPETTPLNQDTMGEYTPLRDEDPNAPPYQPPPPFTAPMEGKGSRPKNMTPYRSPPPYVPP
Turning to B2, the binding result (in assay [1]; in the assay with Ple E12–24 (M546–E1128); in the assay with Ple R4–C (L3850–A4687)) was “binds” each time.

B3: Eu3+-labeled version of the full-length cytoplasmic domain of βDG (βDGcyt) (domain or fragment, human, UniProt Q14118 765-895, looked up)
chain: B2 chain
modifications: Eu3+ label
For the molecule B3, in the assay with Utr WW-ZZ (A2798–M3113), the binding result is given as “binds”.

The values above are taken from article PMC2064082 (The Journal of Cell Biology, 2007).
